The target of this test is pertussis toxin holotoxin (Bordetella pertussis, UniProt P04977 35-269; P04978 31-226; P04979 32-227; P0A3R5 43-152; P04981 36-133). Briefly: cell-based or functional assay.

B1: 1B7 Fab (Fab)
chain: DIQMTQSPALMSASPGEKVTMTCSASSSVSFMYWYQQKPRSSPKPWIYLTSNLPSGVPARFSGSGSGTSYSLTISSMEAEDAATYYCQQWSSHPPTFGSGTKLEIKRGGGGSGGGGSGGGGSGGGGSEVQLQQSGSELVRPGASVKLSCKASGYKFTSYWMHWVKQRPGQGLEWIGNIFPGSGSTNYDEKFNSKATLTVDTSSNTAYMQLSSLTSEDSAVYYCTRWLSGAYFDYWGQGTTLTVSSASGA
Take B1: the “In Vitro Neutralization (nM), minimum protective concentration, CHO clustering assay” value was 42 nM.

The record behind these values is patent US20140193401A1 (published 2014).
